Results: patent publication US20200399308A1, “COMPOUNDS AND METHODS FOR ELICITING ANTIMICROBIAL ACTIVITY” (Technion Research & Development Foundation Limited, priority 2018, published 2020)

What was measured:
[1] = test system: Klebsiella pneumoniae 1287; assay: Serum survival assay; type: cell-based; conditions: mouse serum; 13 μM lactoferrin with 10 μM Compound B
Experimental: (§1) Serum survival assays were performed using fresh serum from normal mice or human serum from the Israel Blood Bank; samples were pooled and stored in aliquots at −80° C. until use. Time-dependent killing was determined in a final volume of 125 μL consisting of 112.5 μL of serum containing either a tested compound, egg white lysozyme (Amresco), lactoferrin (Vivinal lactoferrin FD; DMV International, Delhi, N.Y.), anti-murine C5/C5a antibody (25 μg/mL; ab194637; Abcam), or their combination, as specified. These solutions were supplemented with 12.5 μL of bacteria suspended in PBS at the desired concentration. After the specified time points of exposure, cultures were subjected to serial 10-fold dilutions in saline (0.85% NaCl) and plated for bacterial enumeration after incubation at 37° C. for an additional 24 hours. In heat-treated experiments, sera were incubated at 56° C. for 30 minutes for protein inactivation. Data were obtained from 3 independent experiments.

Escherichia coli 25922 = assay: Serum survival assay; type: cell-based; conditions: mouse serum; 13 μM lactoferrin with 10 μM Compound B
Experimental: as §1

B1: lactoferrin: host defense antimicrobial protein (Vivinal lactoferrin FD) (protein, UniProt P24627 20-708, looked up)
Lactotransferrin: APRKNVRWCTISQPEWFKCRRWQWRMKKLGAPSITCVRRAFALECIRAIAEKKADAVTLDGGMVFEAGRDPYKLRPVAAEIYGTKESPQTHYYAVAVVKKGSNFQLDQLQGRKSCHTGLGRSAGWIIPMGILRPYLSWTESLEPLQGAVAKFFSASCVPCIDRQAYPNLCQLCKGEGENQCACSSREPYFGYSGAFKCLQDGAGDVAFVKETTVFENLPEKADRDQYELLCLNNSRAPVDAFKECHLAQVPSHAVVARSVDGKEDLIWKLLSKAQEKFGKNKSRSFQLFGSPPGQRDLLFKDSALGFLRIPSKVDSALYLGSRYLTTLKNLRETAEEVKARYTRVVWCAVGPEEQKKCQQWSQQSGQNVTCATASTTDDCIVLVLKGEADALNLDGGYIYTAGKCGLVPVLAENRKSSKHSSLDCVLRPTEGYLAVAVVKKANEGLTWNSLKDKKSCHTAVDRTAGWNIPMGLIVNQTGSCAFDEFFSQSCAPGADPKSRLCALCAGDDQGLDKCVPNSKEKYYGYTGAFRCLAEDVGDVAFVKNDTVWENTNGESTADWAKNLNREDFRLLCLDGTRKPVTEAQSCHLAVAPNHAVVSRSDRAAHVKQVLLHQQALFGKNGKNCPDKFCLFKSETKNLLFNDNTECLAKLGGRPTYEEYLGTEYVTAIANLKKCSTSPLLEACAFLTR
[1]
  sensitization by Compound B to lactoferrin: no significant sensitization
Escherichia coli 25922
  sensitization by Compound B to lactoferrin: no significant sensitization
